Source: US20140296492A1

Target: HLA-A2-… complex on cells (human)
Test: cell-based or functional assay

anti-HLA-A2 antibody BB7.2
blocking of WT1 Clone 45 CAR-mediated cytotoxicity against …-pulsed DIMT BLCL (51Cr release), antibody at 5 µg/ml: 45%
